Laboratory results taken from patent US20240409620A1 (CENTER FOR EXCELLENCE IN MOLECULAR CELL SCIENCE CHINESE …, published 2024).

Columns and labels:
[1] = target: RSV/A/A2 fusion protein F on the virus (respiratory syncytial virus RSV/A/A2, UniProt P03420 26-574); assay: cell-based or functional assay
[2] = target: T1, RSV/B/B9320 pre-fusion F protein (respiratory syncytial virus RSV/B/B9320); assay: BLI (Octet RED96), antibody captured on AHC sensor; reference MEDI8897
T1 construct: also called pre-F of RSV type B; recombinant DS-Cav1

[3] = target: T2, RSV/A/A2 pre-fusion F protein (respiratory syncytial virus RSV/A/A2, UniProt P03420 26-109); assay: as above
T2 construct: also called RSV A2 pre-fusion F protein; pre-F of RSV type A

[4] = target: T1, RSV/B/B9320 pre-fusion F protein; assay: BLI (Octet RED96), antibody captured on AHC sensor; reference Palivizumab
[5] = target: T2, RSV/A/A2 pre-fusion F protein; assay: as above

B1: 4F1En1 (VH-S75R) (antibody, V domains shown)
VH: QVQLVESGGGVVQPGRSLRLSCAASGFSFYSYSVHWVRQAPGKGLEWVADVVYDGNHQHYTDSVKGRFTISRDTRKNTVYLQMGSLRAEDTALYYCTARSLVITLAGAGRDDYWGQGTTVTVSS
VL: DIVMTQSPLSLPVTPGEPASISCRSSQSLLHSNGYTYLDWYLQKPGQSPQLLIFLGSSRASGVPDRFSGSGSGTDFTLKISRVEAEDVGVYYCVQDLQTSLTFGGGTKLEIKR
notes: It is a human IgG captured through Fc
IC50 against RSV/A2, fold lower than palivizumab [1]: 62 fold | neutralization potency for RSV/A/A2 strain, fold against 4F1-WT [1]: 3 times | fold higher binding affinity compared to MEDI8897 [2]: ≥ 100 fold | fold higher affinity compared to MEDI8897 [3]: ≥ 10 fold | fold higher binding affinity compared to PVZ [4]: ≥ 100 fold | fold higher affinity compared to PVZ [5]: ≥ 10 fold
